Four molecules from paper PMC6032367, “A peptide‐display protein scaffold to facilitate single molecule force studies of aggregation‐prone peptides” (Protein Science : A Publication of the Protein Society, 2018) can be followed below.

Data set [1] addresses pL γSyn71–82 (protein L W47Y I60F N14C scaffold with γSyn residues 71–82 inserted in the extended β3‐β4 loop). The data set is described as follows: native MS; ESI–MS of 100 μM pL constructs in 100 mM ammonium acetate pH 6.8, equal volumes mixed for heterodimers; after quiescent incubation for 4 h at 25°C.
Data set [2] concerns the target pL αSyn71–82 (protein L W47Y I60F N14C scaffold with αSyn residues 71–82 inserted in the extended β3‐β4 loop). The data set is described as follows: single molecule force spectroscopy (AFM); pL constructs coupled through Cys14 to maleimide‐PEG on both the AFM tip and the surface; retraction 1 μm s^-1 (1000 nm s^-1), approach 2 µm s^-1; 20 mM HEPES pH 7.5, room temperature; triplicate.

For data set [3] the target is unchanged. The data set is described as follows: native MS; ESI–MS of 100 μM pL constructs in 100 mM ammonium acetate pH 6.8, equal volumes mixed for heterodimers; after quiescent incubation for 4 h at 25°C.
The target is the same in data set [4]. The data set is described as follows: dynamic force spectroscopy (AFM); pL αSyn71–82 on AFM tip and surface; retraction speeds 200 to 5000 nm s^-1; Bell‐Evans fit, dissociation rate constant in the absence of force; 20 mM HEPES pH 7.5, room temperature.
Data set [5] addresses T1, αSyn71–82 synthetic peptide.
T1 peptide: Ac-VTGVTAVAQKTV-NH2
The data set is described as follows: cell-based or functional assay.

Data set [6] concerns the molecule itself. The data set is described as follows: native MS; ESI–IMS–MS of synthetic peptides alone and in a 1:1 mixture; 100 μM final in 100 mM ammonium acetate pH 6.8.
The target in data set [7] is T2, αSyn71–82 synthetic peptide.
T2 chain: VTGVTAVAQKTV
The description is as above. The settings on record: remark: other sources report otherwise.

As usually defined, the stoichiometry N is the number of molecules, sites or subunits per partner or assembly. On to “pL γSyn71–82 (protein L W47Y I60F N14C scaffold with γSyn residues 71–82 inserted in the extended β3‐β4 loop)”, for which the stoichiometry N in data set [1] stood at 2. In data set [2], this molecule gave a hit rate (frequency of detection) of 3.2% and a rupture force (F R) of 53 pN.
By koff is commonly meant a measure of how fast the partners let go of each other. A lower koff goes with slow dissociation. “pL αSyn71–82 (protein L W47Y I60F N14C scaffold with αSyn residues 71–82 inserted in the extended β3‐β4 loop)” showed a stoichiometry N in data set [3] of less than 3. Also, in data set [4], the koff came out at 0.18 s⁻¹ and the lifetime amounted to 6 s. Besides, in data set [2], the hit rate was 4% and the rupture force (F R) was 57 pN.

B1: γSyn71–82 synthetic peptide (peptide)
peptide: Ac-VSSVNTVATKTV-NH2
notes: γ‐synuclein, central NAC region, residues 71–82; also called central NAC region of γSyn; source: bought: Genscript, synthetic peptide, >99% purity
B1: in data set [5], the “increase in lag‐time of ThT fluorescence of the 1:1 peptide mixture compared with αSyn71–82 alone” value turned out to be 2.5 fold and the “increase in lag‐time of ThT fluorescence of the 1:1 peptide mixture compared with γSyn71–82 alone” value is 5.7 fold. Further, the “stoichiometry N” value in data set [6] is no more than 14.
On to Ac-VTGVTAVAQKTV-NH2 [αSyn71–82 synthetic peptide], for which the stoichiometry N in data set [7] is less than 14.
